Measured values: patent US20230357838

Key:
AcDa01 = conditions: CG 0.790, CH 0.014
[1] = test system: T1, AvDa02 (Actinomyces viscosus)
T1 sequence: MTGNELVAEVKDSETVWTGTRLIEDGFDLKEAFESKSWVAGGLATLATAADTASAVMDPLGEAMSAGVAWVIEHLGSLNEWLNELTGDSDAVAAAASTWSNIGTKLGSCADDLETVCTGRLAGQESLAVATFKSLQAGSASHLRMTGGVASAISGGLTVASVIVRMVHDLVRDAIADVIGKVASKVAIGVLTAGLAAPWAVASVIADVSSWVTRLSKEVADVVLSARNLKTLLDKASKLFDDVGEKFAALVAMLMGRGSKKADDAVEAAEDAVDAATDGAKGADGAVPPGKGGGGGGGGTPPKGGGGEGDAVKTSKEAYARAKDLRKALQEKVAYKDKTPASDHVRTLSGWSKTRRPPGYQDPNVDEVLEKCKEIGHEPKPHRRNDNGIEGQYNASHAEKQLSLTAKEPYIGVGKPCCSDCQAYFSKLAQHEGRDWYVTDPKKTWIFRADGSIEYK

[2] = test system: T2, BaDa01 (Bacillus aerophilus)
T2 sequence: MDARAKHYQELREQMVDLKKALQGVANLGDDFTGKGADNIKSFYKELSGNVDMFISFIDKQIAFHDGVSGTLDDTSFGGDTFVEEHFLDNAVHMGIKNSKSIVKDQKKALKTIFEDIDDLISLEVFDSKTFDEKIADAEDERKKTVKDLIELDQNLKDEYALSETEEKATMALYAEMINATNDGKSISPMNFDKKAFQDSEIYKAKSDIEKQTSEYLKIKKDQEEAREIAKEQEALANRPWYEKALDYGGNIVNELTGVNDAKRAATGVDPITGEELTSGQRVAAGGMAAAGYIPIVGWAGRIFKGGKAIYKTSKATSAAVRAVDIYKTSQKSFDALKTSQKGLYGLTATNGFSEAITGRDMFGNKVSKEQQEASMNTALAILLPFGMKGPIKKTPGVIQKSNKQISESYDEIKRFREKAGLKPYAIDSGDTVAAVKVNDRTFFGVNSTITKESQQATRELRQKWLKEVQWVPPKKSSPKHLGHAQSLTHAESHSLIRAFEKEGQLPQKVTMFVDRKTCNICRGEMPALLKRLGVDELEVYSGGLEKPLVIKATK

[3] = test system: T3, BcDa02 (Burkholderia cepacia)
T3 sequence: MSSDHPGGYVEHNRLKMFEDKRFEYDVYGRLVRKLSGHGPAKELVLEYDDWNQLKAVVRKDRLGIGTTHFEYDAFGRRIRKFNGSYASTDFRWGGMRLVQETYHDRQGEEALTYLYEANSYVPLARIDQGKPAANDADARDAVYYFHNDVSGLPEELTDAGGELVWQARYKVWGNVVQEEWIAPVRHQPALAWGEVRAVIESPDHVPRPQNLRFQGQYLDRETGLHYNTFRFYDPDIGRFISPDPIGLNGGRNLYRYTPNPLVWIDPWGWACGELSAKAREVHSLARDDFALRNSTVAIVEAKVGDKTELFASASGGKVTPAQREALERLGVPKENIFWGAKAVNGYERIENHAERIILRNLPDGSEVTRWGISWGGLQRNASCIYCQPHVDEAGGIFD

CbDa01 (unidentified) = conditions: CG 0.760, CH 0.022
[4] = test system: T4, CrDa01 (Clostridium roseum)
T4 sequence: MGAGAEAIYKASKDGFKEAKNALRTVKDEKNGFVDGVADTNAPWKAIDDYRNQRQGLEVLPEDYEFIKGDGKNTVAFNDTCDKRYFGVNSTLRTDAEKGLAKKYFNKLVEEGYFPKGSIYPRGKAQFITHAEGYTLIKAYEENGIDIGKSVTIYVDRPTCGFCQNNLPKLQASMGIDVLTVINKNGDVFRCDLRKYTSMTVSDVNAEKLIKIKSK

[5] = test system: CseDa01 (Candidatus Scybalomonas e)
[6] = test system: EcDa01 (Escherichia coli)
[7] = test system: T5, FlDa01 (Flavobacterium sp.)
T5 sequence: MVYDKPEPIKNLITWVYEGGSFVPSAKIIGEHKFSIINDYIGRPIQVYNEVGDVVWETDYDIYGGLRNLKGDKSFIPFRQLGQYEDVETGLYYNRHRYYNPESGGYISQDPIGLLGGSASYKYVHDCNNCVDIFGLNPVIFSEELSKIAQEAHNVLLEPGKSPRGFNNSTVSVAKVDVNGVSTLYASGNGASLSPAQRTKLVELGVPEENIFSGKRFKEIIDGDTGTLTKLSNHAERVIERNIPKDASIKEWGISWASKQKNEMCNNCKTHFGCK

LbsDa01 (Simiaoa sunii) = test system: T6, LbsDa01 (Simiaoa sunii)
T6 sequence: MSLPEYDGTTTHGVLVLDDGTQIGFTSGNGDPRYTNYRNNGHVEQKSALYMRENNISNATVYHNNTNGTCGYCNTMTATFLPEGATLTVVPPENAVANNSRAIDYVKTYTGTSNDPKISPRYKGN

MGYPDa06 (unidentified) = test system: T7, MGYPDa06 (unidentified)
T7 sequence: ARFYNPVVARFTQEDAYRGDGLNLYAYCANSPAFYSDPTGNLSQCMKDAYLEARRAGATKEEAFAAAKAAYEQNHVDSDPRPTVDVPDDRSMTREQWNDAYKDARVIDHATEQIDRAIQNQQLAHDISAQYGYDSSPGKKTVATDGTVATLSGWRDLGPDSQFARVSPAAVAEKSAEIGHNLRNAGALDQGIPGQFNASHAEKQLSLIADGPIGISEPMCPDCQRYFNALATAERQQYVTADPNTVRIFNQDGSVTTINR

MmgDa02 = conditions: CG 0.446, CH 0.002
[8] = test system: NsDa01 (Neisseria subflava); conditions: 5mC 0.059, 5hmC 0.017
[9] = test system: SaDa02 (Streptomyces sp.)
chimera_10 = test system: T8, chimera_10
T8 sequence: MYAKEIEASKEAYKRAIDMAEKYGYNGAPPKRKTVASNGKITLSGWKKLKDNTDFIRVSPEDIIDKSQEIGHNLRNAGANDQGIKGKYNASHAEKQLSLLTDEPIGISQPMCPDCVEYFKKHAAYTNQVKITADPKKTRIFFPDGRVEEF

Substance: unmodified dsDNA (E. coli C2566 genomic)
- activity (fraction deaminated) (AcDa01): 0.243
- activity (fraction deaminated) [1]: 0.998
- activity (fraction deaminated) [2]: 0.612
- activity (fraction deaminated) [3]: 0.772
- activity (fraction deaminated) (CbDa01 (unidentified)): 0.24
- activity (fraction deaminated) [4]: 0.811
- activity (fraction deaminated) [5]: 0.998
- activity (fraction deaminated) [6]: 0.566
- activity (fraction deaminated) [7]: 0.928
- activity (fraction deaminated) (LbsDa01 (Simiaoa sunii)): 0.889
- activity (fraction deaminated) (MGYPDa01 (unidentified)): 0.748
- activity (fraction deaminated) (MGYPDa06 (unidentified)): 0.997
- activity (fraction deaminated) (MmgDa02): 0.133
- activity (fraction deaminated) [8]: 0.597
- activity (fraction deaminated) [9]: 0.607
- activity (fraction deaminated) (chimera_10): 0.95
- activity (fraction deaminated) (d22_Cd4_PeDa01): 0.641
